Measurements as given in the supplement of paper PMC7125110.
± gives the standard error. Fewer inactive variants are shown than the library holds.

B1: glmS ribozyme (parent)
chain: AUAAAAGCGCCAGAACUACAGAAAUGUAGUUGACGAGGAGGAGGUUUAUCGAAUUUUCGGCGGAUGCCUCCAAA

Columns and labels:
Conditions in all cases: with glucosamine-6-phosphate
glucosamine-6-phosphate [1] = variants of: B1; assay: self-cleavage kobs at 40 uM GlcN6P; higher = faster cleavage; RNA array
Summary of the method: (§1)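 E. coli RNA polymerase transcribed barcoded ribozyme variants in situ on sequenced MiSeq chips, which were tracked via a hybridised Cy3 probe at 37 °C. Tiles were imaged over ~14 h after glucosamine-6-phosphate (40 μM to 10 mM) in HEPES/KCl/Mg(OAc)2 buffer was flowed in. Normalised per-tile medians were fit to one- or two-exponential decays for kobs, and kcat and KM came from weighted Michaelis–Menten fits.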

glucosamine-6-phosphate [2] = variants of: B1; assay: self-cleavage kobs at 640 uM GlcN6P; higher = faster cleavage; RNA array
Summary of the method: as §1

glucosamine-6-phosphate [3] = variants of: B1; assay: self-cleavage kobs at 2500 uM GlcN6P; higher = faster cleavage; RNA array
Summary of the method: as §1

glucosamine-6-phosphate [4] = variants of: B1; assay: self-cleavage kobs at 10000 uM GlcN6P; higher = faster cleavage; RNA array
Summary of the method: as §1

glucosamine-6-phosphate [5] = variants of: B1; assay: self-cleavage kobs at 160 uM GlcN6P; higher = faster cleavage; RNA array
Summary of the method: as §1

Variant | self-cleavage kobs at 40 uM GlcN6P (glucosamine-6-phosphate [1]) [s⁻¹] | self-cleavage kobs at 640 uM GlcN6P (glucosamine-6-phosphate [2]) [s⁻¹] | self-cleavage kobs at 2500 uM GlcN6P (glucosamine-6-phosphate [3]) [s⁻¹] | self-cleavage kobs at 10000 uM GlcN6P (glucosamine-6-phosphate [4]) [s⁻¹] | self-cleavage kobs at 160 uM GlcN6P (glucosamine-6-phosphate [5]) [s⁻¹]
G26A A39U G40C | 5.34e-05 ± 1.4e-05 | 0.000262 ± 8.2e-05 | 0.000935 ± 0.00028 |  | 
C16U G40A G62A U69A | < 1e-05 |  |  |  | 
U30C U55A U57G | < 1e-05 |  |  |  | 
U30G G59C | < 1e-05 | < 1e-05 |  | < 1e-05 | 
U31C A39G C50U U54G C58A G60C G62U | < 1e-05 |  |  | < 1e-05 | 
G29A A33G C34G C67U | < 1e-05 |  |  |  | 
G32C G38C | < 1e-05 | < 1e-05 |  |  | < 1e-05
U31A C61U | < 1e-05 | < 1e-05 |  |  | < 1e-05
U31C U49A A64U | < 1e-05 |  |  | < 1e-05 | 
G32A A52U C71A | < 1e-05 |  |  |  | 
G29C U30C G38C G44A A48C U55G | < 1e-05 |  | < 1e-05 | < 1e-05 | 
C19A A33G A36G G40A A42G G62U G63A C71A | < 1e-05 |  | < 1e-05 |  | 
G29U C50G A53G U55G C67G | 0.000349 ± 0.00015 |  |  |  | 
G29A C50G A53U G66U | 5.27e-05 ± 2.6e-05 |  |  |  | 
U30G A42G U55G | 0.000185 ± 4.5e-05 |  | 0.0026 ± 0.00051 | 0.00677 ± 0.0014 | 
G32A C50G G51A | < 1e-05 |  |  |  | 
U31A G43C U54G | < 1e-05 |  |  | < 1e-05 | 
U30C U45G | < 1e-05 |  |  |  | < 1e-05
G29U C34A | < 1e-05 |  | < 1e-05 | < 1e-05 | < 1e-05
U31G A39C G44C | < 1e-05 |  |  |  | 
G29U U30G U54A | 9.91e-05 ± 2.6e-05 |  |  | 0.00383 ± 0.00068 | 
G29A C34A | < 1e-05 | < 1e-05 | < 1e-05 | < 1e-05 | < 1e-05
C16U G32C G38C | < 1e-05 |  |  |  | 
C16U A39C | 0.000107 ± 1.4e-05 |  | 0.00222 ± 0.00082 | 0.00545 ± 0.0006 | 
U31C U57G | < 1e-05 |  |  |  | 
U31C G63C | < 1e-05 | < 1e-05 |  | < 1e-05 | < 1e-05
G29C U30C A33C A42G U55A U56A | < 1e-05 |  |  | < 1e-05 | 

Variant | self-cleavage kobs at 40 uM GlcN6P (glucosamine-6-phosphate [1]) [s⁻¹] | self-cleavage kobs at 640 uM GlcN6P (glucosamine-6-phosphate [2]) [s⁻¹] | self-cleavage kobs at 2500 uM GlcN6P (glucosamine-6-phosphate [3]) [s⁻¹] | self-cleavage kobs at 10000 uM GlcN6P (glucosamine-6-phosphate [4]) [s⁻¹] | self-cleavage kobs at 160 uM GlcN6P (glucosamine-6-phosphate [5]) [s⁻¹]
C16U C34A | < 1e-05 |  |  |  | 
G29A G35C A39G G41U G43C G62A A64U | < 1e-05 | < 1e-05 | < 1e-05 | < 1e-05 | 
C16U U30G G32A U57A C61U | < 1e-05 |  | < 1e-05 |  | 
U30A G51U U54A | < 1e-05 |  |  | < 1e-05 | 
U31G G43A C61A C68A | < 1e-05 | < 1e-05 | < 1e-05 |  | < 1e-05
U30A U54G | 0.000119 ± 2.1e-05 |  |  | 0.00479 ± 0.00078 | 
U30A G59A G63A | < 1e-05 |  |  |  | 
G29C U54G G60A | < 1e-05 |  |  | < 1e-05 | 
U31G A39G A64G | 0.00023 ± 8.9e-05 | 0.00544 ± 0.0014 |  | 0.0288 ± 0.012 | 
G29U G51C | < 1e-05 | < 1e-05 |  | < 1e-05 | 
G32C G43C G51U | < 1e-05 |  |  | < 1e-05 | 
G29U A39G A64U | < 1e-05 |  |  |  | 
U31G A39U C61U | < 1e-05 |  |  |  | 
U30G A52C G62U | < 1e-05 |  |  | < 1e-05 | 
U31A G59C | < 1e-05 | < 1e-05 | < 1e-05 | < 1e-05 | < 1e-05
G29A U49C U69A | < 1e-05 |  |  | < 1e-05 | 
G29C A48U | < 1e-05 |  |  |  | < 1e-05
U31G A42C C70U | < 1e-05 |  |  |  | 
U31A U55C G63C C67G | < 1e-05 |  | < 1e-05 | < 1e-05 | 
U30A C34U C68G | 0.000169 ± 6.6e-05 | 0.000629 ± 0.00024 |  | 0.000202 ± 6.3e-05 | 
U30A C50G | 3.17e-05 ± 1.5e-05 | 0.00128 ± 0.0005 | 6.93e-05 ± 1.6e-05 |  | 6.28e-05 ± 1.6e-05
U31A A42G G51A C70G | < 1e-05 |  |  | < 1e-05 | 
G29A U54C | 0.000148 ± 3.6e-05 | 0.000813 ± 0.00033 | 0.00138 ± 0.00056 |  | 0.000257 ± 7e-05
U30G A36G | < 1e-05 | < 1e-05 | < 1e-05 | < 1e-05 | < 1e-05
U31G A39G | 0.0004 ± 6e-05 | 0.00522 ± 0.0013 | 0.0142 ± 0.0046 |  | 0.00122 ± 0.00027
U30C G40A A52G U55C C61G | < 1e-05 |  |  | < 1e-05 | 
